{
  "source": "patent US20230321287A1",
  "about": "“RADIOLABELLED GRPR-ANTAGONIST FOR USE AS THERAGNOSTIC” (NOVARTIS AG, priority 2019, published 2023)",
  "assay": "clinical",
  "conditions": "human, Relative radiotracer uptake",
  "description": "The primary objective was to characterize preliminary targeting properties of [68Ga] NeoB in patients with malignancies known to overexpress GRPR. The primary efficacy endpoints were: • Number and location of tumor lesions detected by [68Ga]-NeoBOMB1 overall and for each tumor type • Calculation of the ratio tumor/background standard uptake value (SUV) and %injected dose per gram of tissue (ID/g) and calculation of absorbed dose (mGy/MBq) in tumor overall and for each tumor type.\nAccordingly, highest relative tracer uptake following administration of a bombesin antagonist is expected in pancreas, kidney, and liver (Roivainen et al, 2013).",
  "data": [
    {"molecule": "CC(C)CC(CC(C)C)NC(=O)[C@H](Cc1cnc[nH]1)NC(=O)CNC(=O)[C@@H](NC(=O)[C@H](C)NC(=O)[C@H](Cc1c[nH]c2ccccc12)NC(=O)[C@H](CCC(N)=O)NC(=O)[C@@H](Cc1ccccc1)NC(=O)COCC(=O)Nc1ccc(CNC(=O)CN2CCN(CC(=O)O)CCN(CC(=O)O)CCN(CC(=O)O)CC2)cc1)C(C)C", "note": "[[68Ga]-NeoB, metal not drawn]", "values": [
      {"measurement": "tissue uptake at 0.25 h", "setting": "Liver, patient FR01-008, 15 min/38.6 min actual", "result": 0.00794, "unit": "%ID/g"},
      {"measurement": "tissue uptake at 0.25 h", "setting": "alveolar-interstitial (lungs), total radioactivity, patient FR01-009, 15 min/17.8 min actual", "result": 0.00124, "unit": "%ID/g"},
      {"measurement": "tissue uptake at 1 h", "setting": "alveolar-interstitial (lungs), total radioactivity, patient FR01-009, 60 min/60.7 min actual", "result": 0.000884, "unit": "%ID/g"},
      {"measurement": "tissue uptake at 2 h", "setting": "alveolar-interstitial (lungs), total radioactivity, patient FR01-009, 120 min/123.9 min actual", "result": 0.000591, "unit": "%ID/g"},
      {"measurement": "tissue uptake at 4 h", "setting": "alveolar-interstitial (lungs), total radioactivity, patient FR01-009, 240 min/207.9 min actual", "result": 0.000386, "unit": "%ID/g"},
      {"measurement": "tissue uptake at 0.25 h", "setting": "heart wall, total radioactivity, patient FR01-009, 15 min/17.8 min actual", "result": 0.0034, "unit": "%ID/g"},
      {"measurement": "tissue uptake at 1 h", "setting": "heart wall, total radioactivity, patient FR01-009, 60 min/60.7 min actual", "result": 0.00207, "unit": "%ID/g"},
      {"measurement": "tissue uptake at 2 h", "setting": "heart wall, total radioactivity, patient FR01-009, 120 min/123.9 min actual", "result": 0.00142, "unit": "%ID/g"},
      {"measurement": "tissue uptake at 4 h", "setting": "heart wall, total radioactivity, patient FR01-009, 240 min/207.9 min actual", "result": 0.000928, "unit": "%ID/g"},
      {"measurement": "tissue uptake at 0.25 h", "setting": "kidneys, total radioactivity, patient FR01-009, 15 min/17.8 min actual", "result": 0.0048, "unit": "%ID/g"},
      {"measurement": "tissue uptake at 1 h", "setting": "kidneys, total radioactivity, patient FR01-009, 60 min/60.7 min actual", "result": 0.0038, "unit": "%ID/g"},
      {"measurement": "tissue uptake at 2 h", "setting": "kidneys, total radioactivity, patient FR01-009, 120 min/123.9 min actual", "result": 0.00505, "unit": "%ID/g"},
      {"measurement": "tissue uptake at 4 h", "setting": "kidneys, total radioactivity, patient FR01-009, 240 min/207.9 min actual", "result": 0.00278, "unit": "%ID/g"},
      {"measurement": "tissue uptake at 1 h", "setting": "liver, total radioactivity, patient FR01-008, 60 min/62.6 min actual", "result": 0.00296, "unit": "%ID/g"},
      {"measurement": "tissue uptake at 2 h", "setting": "liver, total radioactivity, patient FR01-008, 120 min/123.2 min actual", "result": 0.00197, "unit": "%ID/g"},
      {"measurement": "tissue uptake at 4 h", "setting": "liver, total radioactivity, patient FR01-008, 240 min/221.1 min actual", "result": 0.00162, "unit": "%ID/g"},
      {"measurement": "tissue uptake at 0.25 h", "setting": "liver, total radioactivity, patient FR01-009, 15 min/17.8 min actual", "result": 0.00866, "unit": "%ID/g"},
      {"measurement": "tissue uptake at 1 h", "setting": "liver, total radioactivity, patient FR01-009, 60 min/60.7 min actual", "result": 0.00564, "unit": "%ID/g"},
      {"measurement": "tissue uptake at 2 h", "setting": "liver, total radioactivity, patient FR01-009, 120 min/123.9 min actual", "result": 0.00428, "unit": "%ID/g"},
      {"measurement": "tissue uptake at 4 h", "setting": "liver, total radioactivity, patient FR01-009, 240 min/207.9 min actual", "result": 0.00317, "unit": "%ID/g"},
      {"measurement": "tissue uptake at 0.25 h", "setting": "pancreas, total radioactivity, patient FR01-008, 15 min/38.6 min actual", "result": 0.0471, "unit": "%ID/g"},
      {"measurement": "tissue uptake at 1 h", "setting": "pancreas, total radioactivity, patient FR01-008, 60 min/62.6 min actual", "result": 0.0484, "unit": "%ID/g"},
      {"measurement": "tissue uptake at 2 h", "setting": "pancreas, total radioactivity, patient FR01-008, 120 min/123.2 min actual", "result": 0.0545, "unit": "%ID/g"},
      {"measurement": "tissue uptake at 4 h", "setting": "pancreas, total radioactivity, patient FR01-008, 240 min/221.1 min actual", "result": 0.0628, "unit": "%ID/g"},
      {"measurement": "tissue uptake at 0.25 h", "setting": "pancreas, total radioactivity, patient FR01-009, 15 min/17.8 min actual", "result": 0.0215, "unit": "%ID/g"},
      {"measurement": "tissue uptake at 1 h", "setting": "pancreas, total radioactivity, patient FR01-009, 60 min/60.7 min actual", "result": 0.0291, "unit": "%ID/g"},
      {"measurement": "tissue uptake at 2 h", "setting": "pancreas, total radioactivity, patient FR01-009, 120 min/123.9 min actual", "result": 0.0345, "unit": "%ID/g"},
      {"measurement": "tissue uptake at 4 h", "setting": "pancreas, total radioactivity, patient FR01-009, 240 min/207.9 min actual", "result": 0.0374, "unit": "%ID/g"},
      {"measurement": "tissue uptake at 0.25 h", "setting": "red (active) marrow, total radioactivity, patient FR01-008, 15 min/38.6 min actual", "result": 0.00331, "unit": "%ID/g"},
      {"measurement": "tissue uptake at 1 h", "setting": "red (active) marrow, total radioactivity, patient FR01-008, 60 min/62.6 min actual", "result": 0.00116, "unit": "%ID/g"},
      {"measurement": "tissue uptake at 2 h", "setting": "red (active) marrow, total radioactivity, patient FR01-008, 120 min/123.2 min actual", "result": 0.000916, "unit": "%ID/g"},
      {"measurement": "tissue uptake at 4 h", "setting": "red (active) marrow, total radioactivity, patient FR01-008, 240 min/221.1 min actual", "result": 0.000346, "unit": "%ID/g"},
      {"measurement": "tissue uptake at 0.25 h", "setting": "red (active) marrow, total radioactivity, patient FR01-009, 15 min/17.8 min actual", "result": 0.00186, "unit": "%ID/g"},
      {"measurement": "tissue uptake at 1 h", "setting": "red (active) marrow, total radioactivity, patient FR01-009, 60 min/60.7 min actual", "result": 0.00136, "unit": "%ID/g"},
      {"measurement": "tissue uptake at 2 h", "setting": "red (active) marrow, total radioactivity, patient FR01-009, 120 min/123.9 min actual", "result": 0.000998, "unit": "%ID/g"},
      {"measurement": "tissue uptake at 4 h", "setting": "red (active) marrow, total radioactivity, patient FR01-009, 240 min/207.9 min actual", "result": 0.000722, "unit": "%ID/g"},
      {"measurement": "tissue uptake at 0.25 h", "setting": "spleen, total radioactivity, patient FR01-008, 15 min/38.6 min actual", "result": 0.00409, "unit": "%ID/g"},
      {"measurement": "tissue uptake at 1 h", "setting": "spleen, total radioactivity, patient FR01-008, 60 min/62.6 min actual", "result": 0.00211, "unit": "%ID/g"},
      {"measurement": "tissue uptake at 2 h", "setting": "spleen, total radioactivity, patient FR01-008, 120 min/123.2 min actual", "result": 0.00141, "unit": "%ID/g"},
      {"measurement": "tissue uptake at 0.25 h", "setting": "spleen, total radioactivity, patient FR01-009, 15 min/17.8 min actual", "result": 0.00338, "unit": "%ID/g"},
      {"measurement": "tissue uptake at 1 h", "setting": "spleen, total radioactivity, patient FR01-009, 60 min/60.7 min actual", "result": 0.00256, "unit": "%ID/g"},
      {"measurement": "tissue uptake at 2 h", "setting": "spleen, total radioactivity, patient FR01-009, 120 min/123.9 min actual", "result": 0.00191, "unit": "%ID/g"},
      {"measurement": "tissue uptake at 4 h", "setting": "spleen, total radioactivity, patient FR01-009, 240 min/207.9 min actual", "result": 0.00145, "unit": "%ID/g"},
      {"measurement": "tissue uptake at 0.25 h", "setting": "tumor lesion T1-lungL, total radioactivity, patient FR01-009, 15 min/17.8 min actual", "result": 0.00367, "unit": "%ID/g"},
      {"measurement": "tissue uptake at 1 h", "setting": "tumor lesion T1-lungL, total radioactivity, patient FR01-009, 60 min/60.7 min actual", "result": 0.00455, "unit": "%ID/g"},
      {"measurement": "tissue uptake at 2 h", "setting": "tumor lesion T1-lungL, total radioactivity, patient FR01-009, 120 min/123.9 min actual", "result": 0.00481, "unit": "%ID/g"},
      {"measurement": "tissue uptake at 4 h", "setting": "tumor lesion T1-lungL, total radioactivity, patient FR01-009, 240 min/207.9 min actual", "result": 0.00385, "unit": "%ID/g"},
      {"measurement": "tissue uptake at 0.25 h", "setting": "tumor lesion T2-lungR, total radioactivity, patient FR01-009, 15 min/17.8 min actual", "result": 0.00466, "unit": "%ID/g"},
      {"measurement": "tissue uptake at 1 h", "setting": "tumor lesion T2-lungR, total radioactivity, patient FR01-009, 60 min/60.7 min actual", "result": 0.00463, "unit": "%ID/g"},
      {"measurement": "tissue uptake at 2 h", "setting": "tumor lesion T2-lungR, total radioactivity, patient FR01-009, 120 min/123.9 min actual", "result": 0.00377, "unit": "%ID/g"},
      {"measurement": "tissue uptake at 4 h", "setting": "tumor lesion T2-lungR, total radioactivity, patient FR01-009, 240 min/207.9 min actual", "result": 0.00248, "unit": "%ID/g"},
      {"measurement": "tissue uptake at 0.25 h", "setting": "tumor lesion T3-liverL, total radioactivity, patient FR01-009, 15 min/17.8 min actual", "result": 0.0135, "unit": "%ID/g"},
      {"measurement": "tissue uptake at 1 h", "setting": "tumor lesion T3-liverL, total radioactivity, patient FR01-009, 60 min/60.7 min actual", "result": 0.018, "unit": "%ID/g"},
      {"measurement": "tissue uptake at 2 h", "setting": "tumor lesion T3-liverL, total radioactivity, patient FR01-009, 120 min/123.9 min actual", "result": 0.00984, "unit": "%ID/g"},
      {"measurement": "tissue uptake at 4 h", "setting": "tumor lesion T3-liverL, total radioactivity, patient FR01-009, 240 min/207.9 min actual", "result": 0.0178, "unit": "%ID/g"},
      {"measurement": "tissue uptake at 0.25 h", "setting": "tumor lesion T4-liverR1, total radioactivity, patient FR01-009, tumor lesion T4-liverR1, 15 min/17.8 min actual", "result": 0.013, "unit": "%ID/g"}
    ]}
  ]
}
